The target of assay [1] is erbB2 peptide (Homo sapiens) (UniProt P04626). The conditions noted are these: cited from earlier work.
The target of assay [2] is hGrb7-RA-PH domains (residues 103-341), hexa-histidine fusion (human, UniProt Q14451 103-341). Nature of the assay: ITC. (ITC needs no label: the signal is the heat of the interaction.)

The term Kd denotes the equilibrium constant for the complex coming apart.

Sequence of hGrb7-RA-PH domains (residues 103-341), hexa-histidine fusion (Q14451 103-341): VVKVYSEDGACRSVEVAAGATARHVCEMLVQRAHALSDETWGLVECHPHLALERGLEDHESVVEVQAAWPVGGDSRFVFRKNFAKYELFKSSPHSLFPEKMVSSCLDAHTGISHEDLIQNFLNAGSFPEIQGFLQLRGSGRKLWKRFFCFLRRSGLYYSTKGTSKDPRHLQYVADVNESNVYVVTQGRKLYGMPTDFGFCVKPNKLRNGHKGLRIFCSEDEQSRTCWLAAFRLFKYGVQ

For Grb7 SH2 (from UniProt Q14451), the equilibrium dissociation constant (Kd) in assay [1] is 2280 nM.

B1: human Grb7-SH2 domain (domain or fragment, UniProt Q14451 431-527, looked up)
chain: WFHGRISREESQRLIGQQGLVDGLFLVRESQRNPQGFVLSLCHLQKVKHYLILPSEEEGRLYFSMDDGQTRFTDLLQLVEFHQLNRGILPCLLRHCC
Molecule B1 had a Kd in assay [2] of 2800 nM.

The values are drawn from paper PMC4136552 (Journal of molecular recognition : JMR, 2011).
